Results on one protein are retold here after paper doi:10.1101/2020.06.16.154534 (bioRxiv, 2020).

Data set [1] concerns the molecule itself. The data set can be described thus: SAXS.
Data set [2] concerns the molecule itself. Description: SAXS. This is another data set of the same source.

Like-named read-outs stand apart in the source and are kept apart here.

In general, stoichiometry N refers to a count of units in the complex or per binding partner.

B1: apo-bacterioferritin from E. coli (core-free, heme B bound) (natural protein)
chain: not shown
In the case of B1, the “stoichiometry N” value in the data set “SAXS [1]” came to 2; in “SAXS [2]”, 24.
